Assay results taken from article PMC8580825, “Scaffolding protein CcmM directs multiprotein phase separation in β-carboxysome biogenesis” (Nature Structural & Molecular Biology, 2021).
Numbering of substitutions follows the chain as printed.

B1: γCAL domain of M58 (residues 1-181) (domain or fragment, Synechococcus elongatus PCC 7942, UniProt Q03513 1-181, looked up)
chain: MPSPTTVPVATAGRLAEPYIDPAAQVHAIASIIGDVRIAAGVRVAAGVSIRADEGAPFQVGKESILQEGAVIHGLEYGRVLGDDQADYSVWIGQRVAITHKALIHGPAYLGDDCFVGFRSTVFNARVGAGSVIMMHALVQDVEIPPGRYVPSGAIITTQQQADRLPEVRPEDREFARHIIG
notes: residues 1-15 disordered in the crystals; also called γCAL181; source: E. coli BL21 (DE3), purified (Ni-NTA, H6Ub cleaved, SEC); not shown: His6-ubiquitin, N-terminal, cleaved
B2: EGFPC2_(17) (peptide)
chain: GWLAPEQQQRIYRGNAS
notes: the last 17 residues of CcaA, Synechococcus elongatus PCC 7942; residues 1-255 of CcaA replaced by EGFP-GSGGS; EGFP amplified from pEF-gfp (Addgene); source: E. coli BL21 (DE3), purified (Ni-NTA, H6Ub cleaved, SEC); not shown: EGFP with GSGGS linker, N-terminal, kept; His6-ubiquitin, N-terminal, cleaved
B3: SeM58-K62D (natural protein, Synechococcus elongatus PCC 7942, UniProt Q03513 1-539, looked up)
chain: MPSPTTVPVATAGRLAEPYIDPAAQVHAIASIIGDVRIAAGVRVAAGVSIRADEGAPFQVGDESILQEGAVIHGLEYGRVLGDDQADYSVWIGQRVAITHKALIHGPAYLGDDCFVGFRSTVFNARVGAGSVIMMHALVQDVEIPPGRYVPSGAIITTQQQADRLPEVRPEDREFARHIIGSPPVIVRSTPAATADFHSTPTPSPLRPSSSEATTVSAYNGQGRLSSEVITQVRSLLNQGYRIGTEHADKRRFRTSSWQPCAPIQSTNERQVLSELENCLSEHEGEYVRLLGIDTNTRSRVFEALIQRPDGSVPESLGSQPVAVASGGGRQSSYASVSGNLSAEVVNKVRNLLAQGYRIGTEHADKRRFRTSSWQSCAPIQSSNERQVLAELENCLSEHEGEYVRLLGIDTASRSRVFEALIQDPQGPVGSAKAAAAPVSSATPSSHSYTSNGSSSSDVAGQVRGLLAQGYRISAEVADKRRFQTSSWQSLPALSGQSEATVLPALESILQEHKGKYVRLIGIDPAARRRVAELLIQKP
notes: CcmM (M58), Synechococcus elongatus PCC 7942, point mutant in the γCAL domain; source: E. coli BL21 (DE3), purified as wild-type M58; not shown: His6-ubiquitin, N-terminal, cleaved
B4: SeM58-E246K (natural protein, Synechococcus elongatus PCC 7942, UniProt Q03513 1-539, looked up)
chain: B3 chain with D62K, E246K
notes: CcmM (M58), Synechococcus elongatus PCC 7942, point mutant in SSUL1; source: E. coli BL21 (DE3), purified as wild-type M58; not shown: His6-ubiquitin, N-terminal, cleaved
B5: SeM58-R126D (natural protein, Synechococcus elongatus PCC 7942, UniProt Q03513 1-539, looked up)
chain: B3 chain with D62K, R126D
notes: as for B3
B6: SeM58-R79D (natural protein, Synechococcus elongatus PCC 7942, UniProt Q03513 1-539, looked up)
chain: B3 chain with D62K, R79D
notes: as for B3
B7: SeM58-D21K (natural protein, Synechococcus elongatus PCC 7942, UniProt Q03513 1-539, looked up)
chain: B3 chain with D21K, D62K
notes: as for B3
B8: SeM58-D35K (natural protein, Synechococcus elongatus PCC 7942, UniProt Q03513 1-539, looked up)
chain: B3 chain with D35K, D62K
notes: as for B3
B9: SeM58-E303K (natural protein, Synechococcus elongatus PCC 7942, UniProt Q03513 1-539, looked up)
chain: B3 chain with D62K, E303K
notes: as for B4
B10: SeM58-E76K (natural protein, Synechococcus elongatus PCC 7942, UniProt Q03513 1-539, looked up)
chain: B3 chain with D62K, E76K
notes: as for B3
B11: SeM58-E286K (natural protein, Synechococcus elongatus PCC 7942, UniProt Q03513 1-539, looked up)
chain: B3 chain with D62K, E286K
notes: as for B4
B12: SeM58-D112K (natural protein, Synechococcus elongatus PCC 7942, UniProt Q03513 1-539, looked up)
chain: B3 chain with D62K, D112K
notes: as for B3
B13: SeM58-R37D (natural protein, Synechococcus elongatus PCC 7942, UniProt Q03513 1-539, looked up)
chain: B3 chain with R37D, D62K
notes: as for B3
B14: SeM58-R43D (natural protein, Synechococcus elongatus PCC 7942, UniProt Q03513 1-539, looked up)
chain: B3 chain with R43D, D62K
notes: as for B3
B15: SeM58-E17K (natural protein, Synechococcus elongatus PCC 7942, UniProt Q03513 1-539, looked up)
chain: B3 chain with E17K, D62K
notes: as for B3
B16: SeM58-D294K (natural protein, Synechococcus elongatus PCC 7942, UniProt Q03513 1-539, looked up)
chain: B3 chain with D62K, D294K
notes: as for B4
B17: SeM58-D249K (natural protein, Synechococcus elongatus PCC 7942, UniProt Q03513 1-539, looked up)
chain: B3 chain with D62K, D249K
notes: as for B4
B18: SeM58-R95D (natural protein, Synechococcus elongatus PCC 7942, UniProt Q03513 1-539, looked up)
chain: B3 chain with D62K, R95D
notes: as for B3
B19: γCAL domain of M58 (residues 1-198) (domain or fragment, Synechococcus elongatus PCC 7942, UniProt Q03513 1-198, looked up)
chain: MPSPTTVPVATAGRLAEPYIDPAAQVHAIASIIGDVRIAAGVRVAAGVSIRADEGAPFQVGKESILQEGAVIHGLEYGRVLGDDQADYSVWIGQRVAITHKALIHGPAYLGDDCFVGFRSTVFNARVGAGSVIMMHALVQDVEIPPGRYVPSGAIITTQQQADRLPEVRPEDREFARHIIGSPPVIVRSTPAATADFH
notes: also called γCAL198; source: E. coli BL21 (DE3), purified (Ni-NTA, H6Ub cleaved, SEC); not shown: His6-ubiquitin, N-terminal, cleaved

Tests used:
[1] = biological target: SeM58-R251D (Synechococcus elongatus PCC 7942) (UniProt Q03513); test: SEC-MALS; 2 mg/ml protein; 50 mM Tris-HCl pH 8.0/150 mM KCl or 50 mM Tris-HCl pH 8.0/500 mM KCl/5 mM DTT; 25 °C; oligomeric state in solution
[2] = biological target: SeM58-R481D (Synechococcus elongatus PCC 7942) (UniProt Q03513); test: as above
[3] = biological target: SeM58-R298D (Synechococcus elongatus PCC 7942) (UniProt Q03513); test: as above
[4] = biological target: SeM58-R252D (Synechococcus elongatus PCC 7942) (UniProt Q03513); test: as above
[5] = biological target: SeM58-R367D (Synechococcus elongatus PCC 7942) (UniProt Q03513); test: as above
[6] = biological target: the molecule itself; test: as above
[7] = biological target: B19; test: ITC; EGFPC2_(17) (365 μM) in the syringe titrated into γCAL(1–198) (14 μM); 20 °C; 50 mM Tris pH 8.0/100 mM KCl/10 mM Mg(OAc)2; one-site binding model; conditions: both partners purified

Molecule | stoichiometry N [6] | also measured
SeM58-R251D (from UniProt Q03513 1-539) (natural protein) | – | stoichiometry N [1]: 3
SeM58-R481D (from UniProt Q03513 1-539) (natural protein) | – | stoichiometry N [2]: 3
SeM58-R298D (from UniProt Q03513 1-539) (natural protein) | – | stoichiometry N [3]: 3
SeM58-R252D (from UniProt Q03513 1-539) (natural protein) | – | stoichiometry N [4]: 3
SeM58-R367D (from UniProt Q03513 1-539) (natural protein) | – | stoichiometry N [5]: 3
B1 | 3 | –
B2 | – | Kd [7]: ~2000 nM; stoichiometry N [7]: ~2.7 per γCAL198 trimer
B3 | 3 | –
B4 | 3 | –
B5 | 3 | –
B6 | 3 | –
B7 | 3 | –
B8 | 3 | –
B9 | 3 | –
B10 | 3 | –
B11 | 3 | –
B12 | 3 | –
B13 | 3 | –
B14 | 3 | –
B15 | 3 | –
B16 | 3 | –
B17 | 3 | –
B18 | 3 | –
B19 | 3 | –
